Measurements taken from patent US20220323495A1 (NATIONAL RESEARCH COUNCIL OF CANADA, published 2022).
No end group written: not given here.

Legend:
[1] = target: T1, recombinant human wild-type EGFR protein, native (human, UniProt P00533 25-645); assay: ELISA on coated native recombinant antigen; Exp 2, purified mAb 1 µg/ml
T1 construct: Recombinant protein used as ELISA coat; also called EGFRwt; wt EGFR
Procedure: (§1) Pre- and post-immune sera titers of animals were assessed by ELISA on recombinant EGFRvIII protein. Unless otherwise stated, all incubations were performed at room temperature. Briefly, half-area 96-well plates (Costar #3690) were coated with 25 μl per well of immunogen at 5 μg/ml in PBS and incubated overnight at 4° C. Microplates were washed three times in PBS and blocked for 30 min with PBS containing 1% bovine serum albumin (BSA, Sigma Cat#A7030). Blocking buffer was removed and 25 μl of serial dilutions of sera samples were added. After a 2-h incubation, microplates were washed 4 times with PBS-TWEEN™ 20 0.05% and 25 μl of a 1/5,000 dilution of alkaline phosphatase conjugated F(ab′)′₂ goat anti-mouse IgG (H+L, #115-056-062, Jackson Immunoresearch, Cedarlane, Burlington, ON) in blocking buffer was added. After a 1-h incubation, microplates were washed 4 times and 25 μl of p-nitrophenyl phosphate (pNPP) substrate (Sigma-Aldrich Canada Co., Oakville, ON) at 1 mg/ml in carbonate buffer at pH 9.6 was added and further incubated for 30 min. Absorbance was read at 405 nm using a SpectraMax 340 PC plate reader (Molecular Devices, Sunnyvale, Calif.).
(§2) To evaluate if monoclonal antibodies bind to a conformational epitope, an ELISA analysis on native and denatured recombinant human wild-type EGFR and EGFRvIII proteins were performed. […] Antigens at 1-2 mg/ml were denatured by incubation at 95° C. for 5 min in PBS containing DTT at 40 mM final concentration. They were then incubated on ice for 5 min and diluted at their final coating concentration for ELISA purpose.
(§3) mAbs were purified using HiTrap ProteinG HP 1 mL columns GE Healthcare cat no. 17-0404-01 and desalted using Zeba-spin desalting columns 5 mL (Pierce) pre-equilibrated in PBS and filter sterilized through […] membrane (Millipore). The final concentration of the antibody solutions was determined using a Nano-drop 2000 (ThermoScientific), using IgG as sample type. ELISA was performed as described above (serum titer determination) using 25 μl of mAb supernatant (Exp 1) or purified mAb at 1 μg/ml (Exp 2).

[2] = target: T2, recombinant human EGFRvIII protein, native (human, UniProt P00533 298-623); assay: as above
T2 construct: Recombinant extracellular domain used as immunogen and ELISA coat; also called EGFRvIII Native
Procedure: as §1, §2, §3

[3] = target: T1, recombinant human wild-type EGFR …; assay: ELISA on coated native recombinant antigen; Exp 1, mAb supernatant
Procedure: as §1, §2, §3

[4] = target: T2, recombinant human EGFRvIII protein, …; assay: as above
Procedure: as §1, §2, §3

[5] = target: T3, recombinant human EGFRvIII protein, denatured (human, UniProt P00533 298-623); assay: ELISA on coated denatured recombinant antigen; Exp 1, mAb supernatant
T3 construct: Same protein as m9 after denaturation (95 °C for 5 min in PBS with 40 mM DTT); also called EGFRvIII Denatured
Procedure: as §1, §2, §3

[6] = target: T3, recombinant human EGFRvIII protein, …; assay: ELISA on coated denatured recombinant antigen; Exp 2, purified mAb 1 µg/ml
Procedure: as §1, §2, §3

[7] = target: T4, recombinant human wild-type EGFR protein, denatured (human, UniProt P00533 25-645); assay: as above
T4 construct: Same protein as m11 after denaturation (95 °C for 5 min in PBS with 40 mM DTT); also called EGFRwt Denatured
Procedure: as §1, §2, §3

[8] = target: T5, human EGFRvIII amino acid residues 1 to 18, yeast-displayed (human, not fully specified); assay: yeast display; smallest EGFRvIII fragment the antibody was able to bind
T5 construct: also called aa 1-18
T5 peptide: LEEKKGNYVVTDHGSCVR
From the text: Assessment of the binding of anti-EGFRvIII monoclonal antibodies to the fusion proteins expressed on yeast cell surface was done by flow cytometry analysis. Yeast cells were labeled with both the anti-EGFRvIII monoclonal antibody and chicken anti-Myc antibody the latter being used to monitor the level of expression of the fusion protein. Following a wash step, binding of the primary antibodies is probed by a two-color indirect fluorescence labeling using a specific mouse and chicken secondary antibodies for each of the primary antibody respectively.

[9] = target: T6, wild-type human EGFR expressed on cells (U87MG overexpressing wild-type human EGFR) (human, UniProt P00533 25-645); assay: flow cytometry, hybridoma supernatant on U87MG-EGFR WT cells
T6 construct: Full length wt EGFR on cells; also called U87MG-EGFR WT; U87 WT
Procedure: Prior to analysis, cells were plated such that they were not more than 80% confluent on the day of analysis. Unless otherwise stated, all media are kept are 4° C. and all incubations are performed on wet ice.

B1: F271-1D2 anti-EGFRvIII monoclonal antibody (antibody, V domains shown)
VH: DVQLQESGPDLVKPSQSLSLTCTVTGYSITSGYSWHWIRQFPGNKLEWMGYIHYSGSTNYNPSLKSRISITRDTSKNQFFLQLSSVTTEDTATYYCTRSPYFDVWGTGTTVTVSS
VL: DVVMTQTPLSLPVSLGDQASISCRSSQSLVHSDGNTYLHWYLQKPGQSPKLLIYKVSNRFSGVPDRFSGSGSGTDFTLKISRVEAEDLGVYFCSQSTHVPWTFGGGTKLEIK
notes: Mouse hybridoma IgG, tested as supernatant or Protein G purified mAb
[1]
  ELISA absorbance (405 nm): 0.004 A405
[2]
  ELISA absorbance (405 nm): 0.935 A405
[3]
  ELISA absorbance (405 nm): 0.002 A405
[4]
  ELISA absorbance (405 nm): 1.49 A405
[5]
  ELISA absorbance (405 nm): 2.55 A405
[6]
  ELISA absorbance (405 nm): 1.05 A405
[7]
  ELISA absorbance (405 nm): 0 A405
[8]
  binding result: binds
[9]
  binding result: no binding
